In experiment [1] the target is T1, biotinylated NPDP-peptide (Plasmodium falciparum, also: biotinylated).
T1 peptide: KQPADGNPDPNANPN
Briefly: ELISA, biotinylated peptide on avidin-coated plates, titrated IgG. On the technique in general: ELISA stands for enzyme-linked immunosorbent assay.
Experimental: (§1) To test specific antibody binding to (i) the NANP-repeat region of CSP and (ii) the N-terminal region of CSP covering the junction between the N-terminal domain and the NANP-repeats, ELISA plates were coated with 10 μg/ml of avidin (Sigma). […] The plates were washed and incubated with titrated monoclonal antibodies, followed by 1/500 AP-conjugated goat anti-human IgG (Southern Biotech) and pNPP substrate. EC50 (ng/ml) values were calculated for every sample tested by nonlinear regression analysis using the Graph Pad Prism 7 software.

Experiment [2] addresses T2, biotinylated NANP-peptide (Plasmodium falciparum).
T2 construct: also called NANP-repeat region of CSP
T2 peptide: Biotin-NANPNANPNANPNANPNA
The description is as above.
Experimental: as §1

For experiment [3], the target named is T1, biotinylated NPDP-peptide. The experiment is described as above.
Experimental: as §1
Experiment [4] concerns the target T2, biotinylated NANP-peptide. The experiment is described as above.
Experimental: as §1
Experiment [5] concerns the target T3, biotinylated NPDP19-peptide (Plasmodium falciparum).
T3 peptide: Biotin-KQPADGNPDPNANPNVDPN
Put plainly: ELISA, biotinylated peptide on streptavidin-coated plates.

For experiment [6], the target named is T2, biotinylated NANP-peptide. The description is as above.

Residue numbers refer to the chain shown, from its start. Where two headings read alike, the source gives them in different places. Where no end group is shown, it is not given here. The star is where a group is joined. Biotin = O=C1N[C@H]2[C@H](CS[C@H]2CCCCC(=O)*)N1

We go through seven molecules from US20230084102A1 (HUMABS BIOMED, published 2023).

Usually EC50 stands for the concentration needed to bring the measured effect to its halfway point.

B1: MGH2 (antibody, V domains shown)
VH: QVQLVESGGGVVQPGGSLRLSCTASGFSFSSYAMHWVRQAPGKGLEWVAYTRYDGSNKFYLDSVQGRFTISRDNSKNTLYLEMDSLRLEDTAVYFCAKVGDGTVAGTIDYWGQGTLVTVSS
VL: YIVMTQSPLSLPVTLGQPASISCRSSQSLVYSDGNTYLNWYQQRPGQSPRRLIYKVSNRDSGVPDRFSGSGSGTDFTLKISRVEAEDVGVYYCMQGTHWWTFGQGTKVEIK
notes: also called parental antibody MGH2
As for B1, the concentration giving a half-maximal response (EC50) was determined as 0.0488 µg/mL in experiment [1] and 0.0279 µg/mL in experiment [2].

B2: MGH2variant1 (antibody, V domains shown)
VH: B1 VH
VL: B1 VL with W99F
notes: Expressed as IgG1; also called MGH2v1
Turning to B2, the concentration for a half-maximal effect (EC50) in experiment [1] was found to be 0.0658 µg/mL; in experiment [2], 0.0223 µg/mL.

B3: MGU10 (antibody, V domains shown)
VH: QVQLVESGGGVVQPGRSLRLSCAASGFAFSNYGMNWVRQAPGKGLEWVAVIWHDGSLKYYTQSVKGRFTISRDNAKNTLFLQMDSLSADDTAMYYCTVWYLETPDDGFDIWGRGTMVTVSS
VL: QLVLTQPPSASASLGVSVTLTCTLSHGHTSKAIAWHQQQPGKGPRYLMKVNSDGSHTKGAAVPDRFSGSTSGAERHFTISNLQSDDEADYYCQAWDSGIWVFGGGTKLTVL
notes: also called parental antibody MGU10
For B3, the figures for the EC50 in experiment [3] and in experiment [4] were 0.0261 µg/mL and 0.0343 µg/mL, respectively.

B4: MGU10variant2 (antibody, V domains shown)
VH: B3 VH with D106E
VL: B3 VL
notes: Expressed as IgG1; also called MGU10v2
With B4, the concentration for a half-maximal effect (EC50) in experiment [3] stood at 0.0204 µg/mL; in experiment [4], 0.0268 µg/mL. In addition, the binding result in experiment [5] is on record as “binds”.

B5: MGU10variant1 (antibody, V domains shown)
VH: B3 VH with N35H, R113Q
VL: B3 VL
notes: Expressed as IgG1 in Expi293F cells and tested as quantified culture supernatant; also called MGU10v1
On to B5, for which the EC50 in experiment [3] was found to be 0.0225 µg/mL; in experiment [4], 0.0285 µg/mL.

B6: MGU10variant3 (antibody, V domains shown)
VH: B3 VH
VL: B3 VL with D96E
notes: Expressed as IgG1; also called MGU10v3
In the case of B6, the EC50 in experiment [3] is 0.0251 µg/mL; in experiment [4] it was 0.0263 µg/mL.

B7: MGU10variant8 (antibody, V domains shown)
VH: B3 VH with D89E, D106E
VL: B3 VL
notes: also called MGU10v8
As for B7, the binding result in experiment [6] and in experiment [5] was “binds” in each case.
